Test [1] has as its system MDA-MB468 cells. In words: MTT assay / cell proliferation (confluence) assay, MDA-MB468. Format: cell-based, human. As for the experimental part: Human and mouse breast cancer cells (1×10^4) were cultured in 10% FCS containing RPMI1640 medium on a 96-well flat bottom plate (Corning, Tewksbury, MA) at 37° C. for 24 hours, and then stimulated with IL-26 for 48 hours in the presence or absence of EGFR-TKI (gefitinib or erlotinib) at various concentrations, a signal inhibitor, and a neutralizing antibody. HUVECs were seeded in a 96-well flat bottom plate at 5×10^3 cells/well in a 2% FBS-containing EGM medium in which growth factors were reduced by half, and cultured at 37° C. for 12 hours. Thereafter, the medium was aspirated, and a recombinant human IL-26 dimer was adjusted to a final concentration of 10 ng/mL in a 2% FBS-containing EGM medium containing no growth factors, and added to the cells. The stimulation was started in the presence or absence of control human IgG and anti-human IL-26 antibodies, and the cells were cultured for 48 hours. Thereafter, a concentration of 20 μl or 1/10 of a 5 mg/ml MTT solution (Tetrazolium monosodium salt, WST-8) was added to each well, and the plate was allowed to stand for 1 hour. The absorbance at 450 nm/595 nm was measured using Microplate Reader (Bio-Rad, Hercules, CA) and data was analyzed with Microplate Manager 6 software (Bio-Rad).
Human and mouse breast cancer cells (1×10^4) were cultured in RPMI1640 medium containing 10% FCS for 24 hours at 37° C. on a 96-well flat bottom plate (Corning), and then stimulated with IL-26 (30 ng/ml) in the presence or absence of various concentrations of gefitinib and a neutralizing antibody. Cell proliferation was measured as cell confluence using IncuCyte ZOOM (Essen Bioscience, Ann Arbor, MI).
In general terms: Tetrazolium dyes change colour on reduction, which living cells bring about.

Test [2] relates to phosphorylation of AKT, JNK, STAT3 and EphA3 in E0771 cells. In words: Western blotting of phosphorylation in E0771 cells. Type of test: cell-based, mouse. The protocol: (§1) To analyze the phosphorylation of AKT, ERK, p38, JNK, STAT3, and EphA3, E0771 cells and HCC70 cells in 100 mm dishes were stimulated with IL-26 ([…]) and an anti-EphA3 polyclonal antibody (pAb) (10 μg/ml) for a specified period of time. After stimulation, the cells were lysed with a 2% protease inhibitor mixture (Sigma-Aldrich) and/or RIPA buffer added with 1×PhosSTOP (Roche Diagnostics, Tokyo, Japan), and a lysate was separated in a reduced state by SDS-PAGE (15 μg/lane). Immunoblots were performed using an anti-phosphorylated AKT antibody, an anti-phosphorylated ERK antibody, an anti-phosphorylated p38 antibody, an anti-phosphorylated JNK antibody, an anti-phosphorylated STAT3 antibody, and an anti-phosphorylated EphA3 antibody that recognize both human and mouse antigens. For reprobing, the membrane was immersed in a stripping buffer. After the stripping procedure, the membranes were re-probed with anti-pan-AKT, anti-pan-ERK, anti-pan-p38, anti-pan-JNK, anti-pan-STAT3, and anti-pan-EphA3 antibodies recognizing both human and mouse antigens. Images were taken using a C-Digit Blot scanner (MS Techno Systems, Inc., Japan).

Test [3] deals with HCC70 cells. The test is described as follows: JC-1 staining (mitochondrial membrane potential) of HCC70 cells. Format: cell-based, human. The settings on record: 24 hours, FIG. 31. The protocol: Mitochondrial stability was evaluated using the mitochondrial membrane potential (ΔΨm) assay kit (Cayman Chemical, Ann Arbor, MI, USA) utilizing JC-1 staining. HCC70 cells (1×10^4 cells) were stimulated with IL-26 (30 ng/ml) in the presence or absence of gefitinib (40 μM), a signal inhibitor, and a neutralizing antibody in 96-well flat bottom plate (Corning) for 24 hours. […] Stained cells were quantified using Image-J software (NIH). Images were captured using a 40× objective.

The test system of test [4] is phosphorylation of AKT, JNK and EphA3 in HCC70 cells. In words: Western blotting of phosphorylation in HCC70 cells. Format: cell-based, human. The settings on record: HCC70, IL-26 30 ng/ml or Ephrin A5 200 ng/ml, gefitinib 40 μM, FIG. 26. The protocol: as §1
In general terms: In western blotting, separated proteins are transferred to a membrane and probed.

In test [5] the target is T1, interaction between IL-26 and EphA3 (Homo sapiens, UniProt Q9NPH9).
T1 construct: purchased R&D Systems; host or cells: IL-26 was purchased; EphA3 is endogenous on HCC70 cells
T1 sequence (Q9NPH9 22-171): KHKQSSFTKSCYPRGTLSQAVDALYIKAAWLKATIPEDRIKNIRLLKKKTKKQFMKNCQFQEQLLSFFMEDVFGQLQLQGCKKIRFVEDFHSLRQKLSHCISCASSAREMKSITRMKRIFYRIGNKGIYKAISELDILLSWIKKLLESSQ
The test is described as follows: Immunofluorescence of rhIL-26-Alexa488 and cell surface EphA3 on HCC70 cells. Type of test: cell-based. The protocol:
E0771 and HCC70 cells (1×10^5) were cultured for 24 hours in RPMI1640 medium with 10% FCS on Lab-Tek chamber slides (Thermo Fisher Scientific). The cultured cells were stimulated with Alexa Fluor 488 labeled IL-26 (30 ng/ml) in the presence or absence of recombinant human and mouse EphA3-Ig for 1 hour. HCC70 cells were stimulated with IL-26 (30 ng/ml) in the presence or absence of gefitinib (40 μM), a signal inhibitor, and a neutralizing antibody for 24 hours. Subcutaneous tumor samples obtained from mice were fixed in 4% paraformaldehyde (Thermo Fisher Scientific) and embedded in OCT compound (Tissue-Tek (registered trademark), Sakura Finetek, Japan). Cells and slides were immunostained with each antibody and observed using a Zeiss inverted microscope and Axiovision 2.0 program (Carl Zeiss, Germany). The fluorescence intensity was quantified with Image-J software (NIH). The images were captured using a 100×400× objective.

For the molecule `COc1cc2ncnc(Nc3ccc(F)c(Cl)c3)c2cc1OCCCN1CCOCC1` [gefitinib, Gefitinib, reference compound], the “cell proliferation under gefitinib” value in test [1] (MDA-MB468, 48 hours, FIGS. 4A, 4B) is listed as “suppression of cell proliferation”. The “AKT and JNK phosphorylation under gefitinib” value in test [2] (E0771, gefitinib 20 μM, FIG. 24B) was “suppression of AKT and JNK phosphorylation”. For the same molecule, the “mitochondrial activity, gefitinib treatment” value in test [3] (HCC70, gefitinib 40 μM) is reported as “significantly reduced mitochondrial activity”.

B1: IL-26: recombinant human IL-26 dimers for cell stimulation, R&D Systems (protein)
chain: KHKQSSFTKSCYPRGTLSQAVDALYIKAAWLKATIPEDRIKNIRLLKKKTKKQFMKNCQFQEQLLSFFMEDVFGQLQLQGCKKIRFVEDFHSLRQKLSHCISCASSAREMKSITRMKRIFYRIGNKGIYKAISELDILLSWIKKLLESSQ
Consider B1, for which the “dephosphorylation of EphA3, activation of AKT and JNK phosphorylation” value in test [4] is “dephosphorylation of EphA3, activation of AKT and JNK phosphorylation”. Besides, the “effect of exogenous IL-26 on suppression of cell proliferation by gefitinib” value in test [1] (MDA-MB468, 48 hours) is given as “inhibited”. Also, the “effect of exogenous IL-26 on inhibitory effect of erlotinib” value in test [1] (MDA-MB-468, IL-26 30 ng/ml, erlotinib 30 μM or 50 μM, 48 hours, MTT) is given as “inhibited the inhibitory effect of erlotinib on cell proliferation”. Further, the “colocalization of exogenous IL-26 with cell surface EphA3” value in test [5] (HCC70, FIG. 21) is on record as “colocalized with the cell surface EphA3 of HCC70”. Also, the “phosphorylation of EphA3” value in test [2] (E0771, IL-26 30 ng/ml, 0 to 60 minutes, FIG. 24A) is reported as “induced dephosphorylation of EphA3”. Further, in test [2] (E0771, IL-26 30 ng/ml, FIG. 5E), the “AKT and JNK phosphorylation” value was “activated AKT and JNK phosphorylation”; the STAT3 activation entry was “did not activate STAT3”. In addition, the “mitochondrial activity, IL-26 with gefitinib” value in test [3] (HCC70, IL-26 30 ng/ml, gefitinib 40 μM) is “significantly inhibited the reduction in mitochondrial activity”.

B2: 69-10: mouse anti-human IL-26 monoclonal antibody, clone 69-10, from deposited hybridoma (antibody, V domains shown)
VH: QVTLKESGPGILKPSQTLSLTCSFSGFSLSTSGMGVGWIRQPSGKGLEWLAHIWWDDDKYYNPSLKSQLTISKDTSRNQVFLKITSVDTADTATYYCVRGGITATHYYAMDYWGQGTSVTVSS
VL: DIQMTQSPASQSASLGESVTISCLASQTIGTWLSWYQQKPGKSPQLLIYAATSLADGVPSRFSGSGSGTKFSFKISSLQAEDFVSYYCQQLYSSPWTFGGGTKLEIK
On to B2, for which the “inhibition of interaction between IL-26 and EphA3” value in test [5] (HCC70, rhIL-26-Alexa488 30 ng/ml, 50 μg/ml each, 1 hour, FIG. 21) was “clearly inhibited the interaction between IL-26 and EphA3”.

The values above are taken from US20230398116A1, “Agent for reversing resistance to anticancer drugs” (Y'S AC CO., LTD., priority 2020, published 2023).
